Laboratory results as given in the DeepSol protein solubility set.

Test: soluble on expression in E. coli; label from the status in PepcDB or PDB records

Sequence	soluble on expression in E. coli
MANQKQVLDVQVSKGITTAQSNEHLRDRSEKAEKYAMSKGNYDPTRKRLNFEIAPGGKIHPIDTSRSIPKRMADILSHRGIKDPNEGLLEPKYRTVVNIIFGGSRQRMQELAFGTQQVDFEKGADNTRIERKRDIERWAKDVYSFVCGRYGEQNIAAFIVHLDELNPHIHCTLLPIKDSRFAYKEIFAGKDKFEYSARMKQLHTDFFAEVNTKWGMSRGTSISETGARHRTTEEYRRMLSEECTTIEDNIKLHQQVLGELQSDIRLAERRVKGLTTMVSNLEKQKTEKETLLSAAEYNLKENKGNAAELAIQIQMLEKELQGIIRQLADKQEKLQTADRQLIELKKDMGAIEERTEELKEEAYQYSRDVHSKVDSLFKDVLLESVISEYRNASAQMNVSERQLFDGSLVQSIAERGTEIMHCATMLFLGMVDDATTFAESHGGGGGGSDLKWGRDEDEDNRAWALRCMRMASRMMRSTIGKKSKRLEHHHHHH	not soluble
MKKLLLTLVSSSLLVACSQRTESMEDKSIAPCGDKPNCISTLDEREEFTVKPFILTSSANMKAISHIASQLKGAKLVDINNDYARIECTSSVFRFVDDLELRIYGNTLIVRSESRTGYSDFGVNRKRVEKLRTLLEEKGLISQLEHHHHHH	not soluble
MSLSAFDAFPLGQPAFVTNILDRAAHLRRDDEKLFALEQKPSSRAYVVHRDSLLVKREGENVRALLGIDEALKCGANPGTIFLGLRDGAAVFGMGLSQAAAEKLVGREDYSLTELRGMAMQGAIPPDELSAIAMAKSMVSWHQRHGYCANCGTRSAMKEGGWKRDCPACKAEHFPRTDPVVIMLVASGEKCLLGRQKQFPPGMFSCLAGFVEAAETIEDAVRREILEESGIRCTDVQYYMTQPWPYPSSLMIGCSARALNEDIVVDHSELEDARWFTREEAALMLTRTHPDGLAGPHPFAIAHHLLGRWVHDKSGEGHHHHHH	soluble
MRGSHHHHHHGSVEYTPWLIAGLGNPGNKYYGTRHNVGFEMVDRIAAEEGITMNTEQSKSLLGIGSIGEVPVLVVKPQSYMNYSGEAIGPLAAYYQVPLRHILLIYDDTSLPNGVLRLQKKGGHGRHNGLQNVIEHLDGRREFPRLSIGIGSPPGKMDPRAFLLQKFSSEERVQIDTALEQGVDAVRTLVLKGFSGSTERFNLVQKYKFHRV	soluble
MSLTYILRRSQLLLIVSSYQLVHYLCSQLSSLKDASCMCAYILTTLYKDIDMELAEKDKGRDFTLRNARMDDIDQIIKINRLTLPENYPYYFFVEHLKEYGLAFFVAIVDNSVVGYIMPRIEWGFSNIKQLPSLVRKGHVVSIAVLEEYRRKGIATTLLEASMKSMKNDYNAEEIYLEVRVSNYPAIALYEKLNFKKVKVLKGYYADGEDAYLMARPLEGHHHHHH	not soluble
SNALQPNMRTRVCTVINNNIAHEWTLARIASELLMSPSLLKKKLREEETSYSQLLTECRMQRALQLIVIHGFSIKRVAVSCGYHSVSYFIYVFRNYYGMTPTEYQERSAQRLSNRDSAAS	soluble
GKDWMISAKGTFTFARNILDEVFETEATFNNPNRRRTGRPDGTMFGYNALGYFTYDDFNPDGSLKAGIATQPWGQVYPGDLRYEDLSGPNGVPDGKIDEHDQTVIGFSNWAPEIIFGLAPTVQWKNFDLNALIQGATRTSISLGETLVMPFFDSGSATKLQFSDHWTPDNTNAPYPRLTSEVTVNNHRQPSSWWVRDATYIRLKSIEIGYTLPRSALNFIGISSARVYASGQNLWTWTPFMKELIDPEAKSANGKYYMQQAVYAFGLNITF	not soluble
MQGVQEQIEELQTKLAFQELTVEELNQEVIKLNQLVAHQQHQIQLLIGKLQAIEPSNMATQAEETPPPHY	soluble
MGSDKIHHHHHHMQVGDRIVVRQEEFDTIGHVLSVDPLIVRPHARGGLPSNAEPVRIDNPLMIKRLSPRTVRNADIRAIEVATAKAFPGIEHTWCGQWLLRAGDGVTERSNSAAPLGPQALFTPVPYEEIKEFYRRHNLPALILVPERIAPAIPDDGPEIIVMTHPLDNVSEIDDVHAEFLDQPDDDWLELYHFRGKALPRHALELLRTTIDGRMCFGRLKRDGKTVAITRGTITDGYLGYSAVEVAPEYRRQGLATELGAAMLAWGKAHGAHTAYLQVIESNAAGIGLYHKLGFVEHHRHKYVRVS	not soluble
MSLNTRQLLSVGIDIGTTTTQVIFSRLELVNRAAVSQVPRYEFIKREISWQSPVFFTPVDKQGGLKEAELKTLILEQYHAAGIEPESVDSGAIIITGESAKTRNARPAVMALSQSLGDFVVASAGPHLESVIAGHGAGAQTLSEQRLCRVLNIDIGGGTANYALFDAGKISGTACLNVGGRLLETDSHGRVVYAHKPGQMIVDECFGAGTDARSLTGAQLVQVTRRMAELIVEVIDGTLSPLAQALMQTGLLPAGVTPEIITLSGGVGECYRHQPADPFCFADIGPLLATALHDHPRLREMNVQFPAQTVRATVIGAGAHTLSLSGSTIWLEGVQLPLRNLPVAIPIDETDLVGAWQQALIQLDLDPKTDAYVLALPASLPVRYAAVLTVINALVDFVARFPNPHPLLVVAGQDFGKALGMLLRPQLQQLPLAVIDEVIVRAGDYIDIGTPLFGGSVVPVTVKSLAFPSEGHHHHHH	soluble
MSLAEPRYKADIGGGSLKLPESRIIAGLLLEGVTEDQWRHAIEVENVLQRRSPGTAKRQSSLMRNRLETMGPELWQMVRDGSTQVAIQAVFAAAIKHSTLLGDFLDLVVRDQFRMFRPDLPRKMWDQYLEQCRNRDPLMPVWQDSTANKLADCVYRILVEVGYITDSKTYRLKSVRISGEVMSYLRENNEQYVIRCIQVSIEGHHHHHH	soluble
MGTKTKKTLFNVDEQMKAIAAQFETLQILNEKGEVVNEAAMPELSDDQLKELMRRMVYTRVLDQRSISLNRQGRLGFYAPTAGQEASQLASHFALEAEDFILPGYRDVPQLVWHGLPLYQAFLFSRGHFMGNQMPENVNALAPQIIIGAQIIQTAGVALGMKLRGKKSVAITYTGDGGASQGDFYEGMNFAGAFKAPAIFVVQNNRYAISTPVEKQSAAKTVAQKAVAAGIYGIQVDGMDPLAVYAATAFARERAVNGEGPTLIETLTFRYGPHTMAGDDPTRYRTKDIENEWEQKDPIVRFRAFLENKGLWSQEVEEKVIEEAKEDIKQAIAKADQAPKQKVTDLMEIMYEKMPYNLAEQYEIYKEKESK	not soluble
MAGSNSRKPVVGMKIRVALVSALLAVSGCTTLSGKAPTLAPTPASTPPTSGKVTKSIISAMDGGLIGGSIGNGLSDEEKRSALEAEYKALEYTTSGQKVAWKGDQASHYGEVVPAQPYRVGSQDCRQYTQTVFTGGAGVTARGTACRNADGSWTPLTLEHHHHHH	soluble
ALQNKEEEKKKVKKLQKSYFDVLGICCTSEVPIIENILKSLDGVKEYSVIVPSRTVIVVHDSLLISPFQIAKALNEARLEANVRVNGETSFKNKW	soluble
MFYTTDTNQHGLPHDPFKAIVAPRPIGWIGSKGREGVLNLSPYSFFNAISDRPKLVMFSSSGRKDSLRNVEETGVFTANLVSRHLVDRMNASSAPVAYDVDEFALAGLTAVDGRVVDAPFVREALAVLECRATQIQQLTDIEGKPTDSWMVIGQVMAIHIGETIIRDGRIDMGLARPVARMGYMDYCDGGSDVFQLQRPSAAPSV	soluble
MSRDSGNDSEVAVTHGEVQEITEENPEIGSMHITQETDISDAPETNTDSSRQRTESTTSVSSESWQNNDEMMSNLRRAQRLLDDGATPLQIIQQIFPDFNASRIATMSENAHFAILSDLLERAPVRQKLTNYNSLADAVELFKTKKHILVLTGAGVSVSCGIPDFRSKDGIYARLRSEFPDLPDPTAMFDIRYFRENPAPFYNFAREIFPGQFVPSVSHRFIKELETSGRLLRNYTQNIDTLEHQTGIKRVVECHGSFSKCTCTRCGQKYDGNEIREEVLAMRVAHCKRCEGVIKPNIVFFGEDLGREFHQHVTEDKHKVDLIVVIGSSLKVRPVALIPHCVDKNVPQILINRESLPHYNADIELLGNCDDIIRDICFSLGGSFTELITSYDSIMEQQGKTKSQKPSQNKRQLISQEDFLNICMKEKRNDDSSDEPTLKKPRMSVADDSMDSEKNNFQEIQKHKSEDDDDTRNSDDILKKIKHPRLLSITEMLHDNKCVAISAHQTVFPGAECSFDLETLKLVRDVHHETHCESSCGSSCSSNADSEANQLSRAQSLDDFVLSDEDRKNTIHLDLQRADSCDGDFQYELSETIDPETFSHLCEEMRI	not soluble
MSLKTPLKDEVFSFIDLETTGSCPIKHEILEIGAVQVKGGEIINRFETLVKVKSVPDYIAELTGITYEDTLNAPSAHEALQELRLFLGNSVFVAHNANFDYNFLGRYFVEKLHCPLLNLKLCTLDLSKRAILSMRYSLSFLKELLGFGIEVSHRAYADALASYKLFEICLLNLPSYIKTTMDLIDEGHHHHHH	not soluble
MGSDKIHHHHHHELPDNRTELNENNVGKILLSAYPTTAICEMGEMSSDNTDAYPNRFSSFNRLQEDLYKWADSAEQDQDSPHALWESCYMAISACNEVLKVIEDAGNPASLSAEKGEALVCRAYAHFLLANIFCNAYSSQASSDLGIPYMKTIETTVSPDYQRGTLEEVYQNIEKDLLEGLDLVTDIYAVPKYHFTKKAAQAFAARFYLYYVKSDKSNYTKVIDYATKVLGSNPATSVRDWKSLGALDINGSVQPNAYVDATNGANLLLVSAGSYWGYVHAPYGLGERYAHGPKVGNETCNSVGPWGSDYYMGVWSNSSALPTKIVVMKITQYKEVVDAVAGTINGHMINAAFTTDETLLCRAEAYAMKEMYPQAIADLNIWREAYTRSTTPLTTESINDFYGSMEYYTPTESTVKKKLNPDFTITNETQENVIHCILHARRLTTLHEGLRWQDIKRYGITIYRRLMNDNGTITVTDKLEPNDPRRAIQIPSDVISAGLKPNPRTK	not soluble
MSLFIHIVGPGDSLFSIGRRYGASVDQIRGVNGLDETNIVPGQALLIPLYVYTVQPRDTLTAIAAKAFVPLERLRAANPGISPNALQAGAKITIPSISNYIAGTLSFYVLRNPDLDRELINDYAPYSSSISIFEYHIAPNGDIANQLNDAAAIETTWQRRVTPLATITNLTSGGFSTEIVHQVLNNPTARTNLVNNIYDLVSTRGYGGVTIDFEQVSAADRDLFTGFLRQLRDRLQAGGYVLTIAVPAKTSDNIPWLRGYDYGGIGAVVNYMFIMAYDWHHAGSEPGPVAPITEIRRTIEFTIAQVPSRKIIIGVPLYGYDWIIPYQPGTVASAISNQNAIERAMRYQAPIQYSAEYQSPFFRYSDQQGRTHEVWFEDVRSMSRKMQIVREYRLQAIGAWQLTLAEGHHHHHH	soluble
MSILHMPLKIKDITIKNRIMMSPMCMYSASTDGMPNDWHIVHYATRAIGGVGLIMQEATAVESRGRITDHDLGIWNDEQVKELKKIVDICKANGAVMGIQLAHAGRKCNISYEDVVGPSPIKAGDRYKLPRELSVEEIKSIVKAFGEAAKRANLAGYDVVEIHAAHGYLIHEFLSPLSNKRKDEYGNSIENRARFLIEVIDEVRKNWPENKPIFVRVSADDYMEGGINIDMMVEYINMIKDKVDLIDVSSGGLLNVDINLYPGYQVKYAETIKKRCNIKTSAVGLITTQELAEEILSNERADLVALGRELLRNPYWVLHTYTSKEDWPKQYERAFKKHHHHHH	soluble
MDYNKTAKDILKLLGGEKNVMSAAHCATRLRLVLKNEKEARTKEIEKLDGVKGVFSSSGQYQIIIGQGSVNKVYKAFVEGTGISESSLSDTKKAAMKNM	not soluble
